Measured values reported in publication PMC10786891, “Massively parallel profiling of RNA-targeting CRISPR-Cas13d”.

T1: EsCas13d, nuclease-dead (Eubacterium siraeum, UniProt B0MS50, R295A;H300A;R849A;H854A)
T1 sequence: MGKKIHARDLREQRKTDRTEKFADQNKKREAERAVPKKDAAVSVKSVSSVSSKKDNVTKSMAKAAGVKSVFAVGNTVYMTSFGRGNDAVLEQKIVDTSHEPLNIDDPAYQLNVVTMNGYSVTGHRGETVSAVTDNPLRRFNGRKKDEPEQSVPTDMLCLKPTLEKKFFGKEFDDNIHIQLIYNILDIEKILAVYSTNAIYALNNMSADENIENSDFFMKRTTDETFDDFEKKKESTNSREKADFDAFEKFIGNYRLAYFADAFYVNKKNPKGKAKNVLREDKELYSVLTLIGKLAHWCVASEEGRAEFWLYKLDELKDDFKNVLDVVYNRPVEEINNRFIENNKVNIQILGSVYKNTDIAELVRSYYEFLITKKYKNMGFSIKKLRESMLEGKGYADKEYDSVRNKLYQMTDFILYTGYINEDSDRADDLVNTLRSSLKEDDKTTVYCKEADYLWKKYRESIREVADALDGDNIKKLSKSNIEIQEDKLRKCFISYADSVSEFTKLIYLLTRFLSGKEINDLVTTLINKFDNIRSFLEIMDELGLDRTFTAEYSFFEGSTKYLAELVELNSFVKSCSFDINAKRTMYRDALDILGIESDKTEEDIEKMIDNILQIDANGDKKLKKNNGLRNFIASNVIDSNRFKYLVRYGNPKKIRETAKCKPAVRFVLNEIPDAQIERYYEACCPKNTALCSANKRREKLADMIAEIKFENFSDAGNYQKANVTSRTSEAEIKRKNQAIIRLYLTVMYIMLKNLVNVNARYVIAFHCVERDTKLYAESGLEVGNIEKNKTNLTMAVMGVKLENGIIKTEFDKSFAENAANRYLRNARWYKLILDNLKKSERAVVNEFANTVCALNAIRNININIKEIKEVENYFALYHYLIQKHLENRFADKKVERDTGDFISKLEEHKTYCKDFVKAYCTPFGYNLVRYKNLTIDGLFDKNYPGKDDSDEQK


Biological target: T1, EsCas13d, nuclease-dead
Assay: crRNA (strand 1, pre-loaded); Mg2+; 40 mM Tris-HCl pH 7.5, 150 mM NaCl, 6 mM MgCl2, 1 mM DTT, 0.1% Tween-20, 0.2 mg/ml BSA; 25 C; 10 min per concentration, then washed
Conditions: tags: His6-TwinStrep-SUMO cleaved; N-terminal SNAP kept (SNAP-Surface 488); label: 3' end held by stalled T7 RNA polymerase

Row | Binder | Kd
1 | target 1 insG 3' of 10,insA 3' of 5 (mixed) RNA 1: CACCCGUGCAAAAAUGCAGGGGUCUAAAACUGAGCGGAUAACCUCUCUAUGG RNA 2: GGGAAUGGAUCCACAUCUACGAAUUCGUACCAUAGAGAGGUUGAUCCGACUCACCGAGAUCGGAAGAGCACACGU | 30.5 ± 3.4 nM
2 | target 1 insU 3' of 12,insG 3' of 11 (mixed) RNA 1: CACCCGUGCAAAAAUGCAGGGGUCUAAAACUGAGCGGAUAACCUCUCUAUGG RNA 2: GGGAAUGGAUCCACAUCUACGAAUUCGUACCAUAGAGAGGUUGUAUCCGCUCACCGAGAUCGGAAGAGCACACGU | 10.8 ± 0.7 nM
3 | target 1 insU 3' of 20,insA 3' of 12 (mixed) RNA 1: CACCCGUGCAAAAAUGCAGGGGUCUAAAACUGAGCGGAUAACCUCUCUAUGG RNA 2: GGGAAUGGAUCCACAUCUACGAAUUCGUACCAUUAGAGAGGAUUAUCCGCUCACCGAGAUCGGAAGAGCACACGU | 33.3 ± 2.5 nM
4 | target 1 insC 3' of 15,insC 3' of 11 (mixed) RNA 1: CACCCGUGCAAAAAUGCAGGGGUCUAAAACUGAGCGGAUAACCUCUCUAUGG RNA 2: GGGAAUGGAUCCACAUCUACGAAUUCGUACCAUAGAGCAGGUCUAUCCGCUCACCGAGAUCGGAAGAGCACACGU | 36.9 ± 3.4 nM
5 | target 1 insC 3' of 20,insC 3' of 8 (mixed) RNA 1: CACCCGUGCAAAAAUGCAGGGGUCUAAAACUGAGCGGAUAACCUCUCUAUGG RNA 2: GGGAAUGGAUCCACAUCUACGAAUUCGUACCACUAGAGAGGUUAUCCCGCUCACCGAGAUCGGAAGAGCACACGU | 15.2 ± 1.7 nM
6 | target 1 U10A,G12U (mixed) RNA 1: CACCCGUGCAAAAAUGCAGGGGUCUAAAACUGAGCGGAUAACCUCUCUAUGG RNA 2: GGGAAUGGAUCCACAUCUACGAAUUCGUACCAUAGAGAGUUAAUCCGCUCACCGAGAUCGGAAGAGCACACGU | 8.6 ± 0.8 nM
7 | target 1 insU 3' of 21,insA 3' of 5 (mixed) RNA 1: CACCCGUGCAAAAAUGCAGGGGUCUAAAACUGAGCGGAUAACCUCUCUAUGG RNA 2: GGGAAUGGAUCCACAUCUACGAAUUCGUACCUAUAGAGAGGUUAUCCGACUCACCGAGAUCGGAAGAGCACACGU | 28 ± 6 nM
8 | target 1 del15 (mixed) RNA 1: CACCCGUGCAAAAAUGCAGGGGUCUAAAACUGAGCGGAUAACCUCUCUAUGG RNA 2: GGGAAUGGAUCCACAUCUACGAAUUCGUACCAUAGAAGGUUAUCCGCUCACCGAGAUCGGAAGAGCACACGU | 8.96 ± 0.33 nM
9 | target 1 U10A,A20U (mixed) RNA 1: CACCCGUGCAAAAAUGCAGGGGUCUAAAACUGAGCGGAUAACCUCUCUAUGG RNA 2: GGGAAUGGAUCCACAUCUACGAAUUCGUACCUUAGAGAGGUAAUCCGCUCACCGAGAUCGGAAGAGCACACGU | 87 ± 13 nM
10 | target 1 C4G,G5A (mixed) RNA 1: CACCCGUGCAAAAAUGCAGGGGUCUAAAACUGAGCGGAUAACCUCUCUAUGG RNA 2: GGGAAUGGAUCCACAUCUACGAAUUCGUACCAUAGAGAGGUUAUCCAGUCACCGAGAUCGGAAGAGCACACGU | 83 ± 17 nM
11 | target 1 A9C,U10A (mixed) RNA 1: CACCCGUGCAAAAAUGCAGGGGUCUAAAACUGAGCGGAUAACCUCUCUAUGG RNA 2: GGGAAUGGAUCCACAUCUACGAAUUCGUACCAUAGAGAGGUACUCCGCUCACCGAGAUCGGAAGAGCACACGU | 13.9 ± 0.8 nM
12 | target 1 C2U,C7G (mixed) RNA 1: CACCCGUGCAAAAAUGCAGGGGUCUAAAACUGAGCGGAUAACCUCUCUAUGG RNA 2: GGGAAUGGAUCCACAUCUACGAAUUCGUACCAUAGAGAGGUUAUGCGCUUACCGAGAUCGGAAGAGCACACGU | 8.54 ± 0.22 nM
13 | target 1 insU 3' of 6,insA 3' of 6 (mixed) RNA 1: CACCCGUGCAAAAAUGCAGGGGUCUAAAACUGAGCGGAUAACCUCUCUAUGG RNA 2: GGGAAUGGAUCCACAUCUACGAAUUCGUACCAUAGAGAGGUUAUCCUAGCUCACCGAGAUCGGAAGAGCACACGU | 13.8 ± 1.3 nM
14 | target 1 U10C,G15A (mixed) RNA 1: CACCCGUGCAAAAAUGCAGGGGUCUAAAACUGAGCGGAUAACCUCUCUAUGG RNA 2: GGGAAUGGAUCCACAUCUACGAAUUCGUACCAUAGAAAGGUCAUCCGCUCACCGAGAUCGGAAGAGCACACGU | 31.3 ± 1.3 nM
15 | target 1 del8,del18 (mixed) RNA 1: CACCCGUGCAAAAAUGCAGGGGUCUAAAACUGAGCGGAUAACCUCUCUAUGG RNA 2: GGGAAUGGAUCCACAUCUACGAAUUCGUACCAUGAGAGGUUACCGCUCACCGAGAUCGGAAGAGCACACGU | 75 ± 10 nM
16 | target 1 insU 3' of 4,insC 3' of 1 (mixed) RNA 1: CACCCGUGCAAAAAUGCAGGGGUCUAAAACUGAGCGGAUAACCUCUCUAUGG RNA 2: GGGAAUGGAUCCACAUCUACGAAUUCGUACCAUAGAGAGGUUAUCCGCUUCACCCGAGAUCGGAAGAGCACACGU | 16.8 ± 1.8 nM
17 | target 1 A9U,G17C (mixed) RNA 1: CACCCGUGCAAAAAUGCAGGGGUCUAAAACUGAGCGGAUAACCUCUCUAUGG RNA 2: GGGAAUGGAUCCACAUCUACGAAUUCGUACCAUACAGAGGUUUUCCGCUCACCGAGAUCGGAAGAGCACACGU | ~90 nM
18 | target 1 C2G,G12U (mixed) RNA 1: CACCCGUGCAAAAAUGCAGGGGUCUAAAACUGAGCGGAUAACCUCUCUAUGG RNA 2: GGGAAUGGAUCCACAUCUACGAAUUCGUACCAUAGAGAGUUUAUCCGCUGACCGAGAUCGGAAGAGCACACGU | 7.14 ± 0.3 nM
19 | target 1 U3C,C4A (mixed) RNA 1: CACCCGUGCAAAAAUGCAGGGGUCUAAAACUGAGCGGAUAACCUCUCUAUGG RNA 2: GGGAAUGGAUCCACAUCUACGAAUUCGUACCAUAGAGAGGUUAUCCGACCACCGAGAUCGGAAGAGCACACGU | 12.1 ± 1.2 nM
20 | target 1 A9C,G12C (mixed) RNA 1: CACCCGUGCAAAAAUGCAGGGGUCUAAAACUGAGCGGAUAACCUCUCUAUGG RNA 2: GGGAAUGGAUCCACAUCUACGAAUUCGUACCAUAGAGAGCUUCUCCGCUCACCGAGAUCGGAAGAGCACACGU | 23.1 ± 2.1 nM
21 | target 1 insU 3' of 21,insU 3' of 5 (mixed) RNA 1: CACCCGUGCAAAAAUGCAGGGGUCUAAAACUGAGCGGAUAACCUCUCUAUGG RNA 2: GGGAAUGGAUCCACAUCUACGAAUUCGUACCUAUAGAGAGGUUAUCCGUCUCACCGAGAUCGGAAGAGCACACGU | 34 ± 7 nM
22 | target 1 insG 3' of 3,insU 3' of 2 (mixed) RNA 1: CACCCGUGCAAAAAUGCAGGGGUCUAAAACUGAGCGGAUAACCUCUCUAUGG RNA 2: GGGAAUGGAUCCACAUCUACGAAUUCGUACCAUAGAGAGGUUAUCCGCUGCUACCGAGAUCGGAAGAGCACACGU | 10.1 ± 0.4 nM
23 | target 1 insU 3' of 13,insG 3' of 6 (mixed) RNA 1: CACCCGUGCAAAAAUGCAGGGGUCUAAAACUGAGCGGAUAACCUCUCUAUGG RNA 2: GGGAAUGGAUCCACAUCUACGAAUUCGUACCAUAGAGAGUGUUAUCCGGCUCACCGAGAUCGGAAGAGCACACGU | 25 ± 5 nM
24 | target 1 insU 3' of 4,insA 3' of 2 (mixed) RNA 1: CACCCGUGCAAAAAUGCAGGGGUCUAAAACUGAGCGGAUAACCUCUCUAUGG RNA 2: GGGAAUGGAUCCACAUCUACGAAUUCGUACCAUAGAGAGGUUAUCCGCUUCAACCGAGAUCGGAAGAGCACACGU | 7.7 ± 0.6 nM
25 | target 1 C2G,C21A (mixed) RNA 1: CACCCGUGCAAAAAUGCAGGGGUCUAAAACUGAGCGGAUAACCUCUCUAUGG RNA 2: GGGAAUGGAUCCACAUCUACGAAUUCGUACAAUAGAGAGGUUAUCCGCUGACCGAGAUCGGAAGAGCACACGU | 36 ± 8 nM
26 | target 1 insU 3' of 15,insA 3' of 6 (mixed) RNA 1: CACCCGUGCAAAAAUGCAGGGGUCUAAAACUGAGCGGAUAACCUCUCUAUGG RNA 2: GGGAAUGGAUCCACAUCUACGAAUUCGUACCAUAGAGUAGGUUAUCCAGCUCACCGAGAUCGGAAGAGCACACGU | 21.4 ± 2 nM
27 | target 1 insA 3' of 19,insG 3' of 19 (mixed) RNA 1: CACCCGUGCAAAAAUGCAGGGGUCUAAAACUGAGCGGAUAACCUCUCUAUGG RNA 2: GGGAAUGGAUCCACAUCUACGAAUUCGUACCAUAGAGAGAGGUUAUCCGCUCACCGAGAUCGGAAGAGCACACGU | 8.62 ± 0.31 nM
28 | target 1 G5U,G15A (mixed) RNA 1: CACCCGUGCAAAAAUGCAGGGGUCUAAAACUGAGCGGAUAACCUCUCUAUGG RNA 2: GGGAAUGGAUCCACAUCUACGAAUUCGUACCAUAGAAAGGUUAUCCUCUCACCGAGAUCGGAAGAGCACACGU | 16.5 ± 1.3 nM
